Data reported in patent publication US20210024635A1 (IMMATICS BIOTECHNOLOGIES, published 2021).
Changes are numbered by the printed parent chain.

B1: Cyprus (IgG1) (antibody, V domains shown)
VH: QVQLVESGGGLVKPGGSLRLSCAASGFTFSDYYMSWIRQAPGKGLEWVSYISSSGSTIYYADSVKGRFTISRDNAKNSLYLQMNSLRAEDTAVYYCARDGLRYFYGFDYWGQGTLVTVSS
VL: QSVLTQPPSVSAAPGQKVTISCSGSSSNIGNNYVSWYQQLPGTAPKLLIYDNNKRPSGIPDRFSGSKSGTSATLGITGLQTEDEADYYCQAWVHYSLVHWVFGGGTKLTVLG
B2: Fiwi (IgG1) (antibody, V domains shown)
VH: EVQLVESGGGLVKPGGSLRLSCAASGFTFSNYWISWVRQAPGKGLEWVGRIKSKTYGGTTDYAEPVKGRFTISRDDSKNTLYLQMNSLKTEDTAVYYCARGRYPELGYFDLWGQGTLVTVSS
VL: B1 VL with Q90G, V93D, H94S, S96L, L97S, H99S, W100F
B3: Daniel (IgG1) (antibody, V domains shown)
VH: QVQLVQSGAEVKKPGASVKVSCKASGYTFTSYYMHWVRQAPGQGLEWMGIINPSGGSTSYAQKFQGRVTMTRDTSTSTVYMELSSLRSEDTAVYYCAREGYTPGGSYTFDIWGQGTLVTVSS
VL: B1 VL with Q90G, A91S, V93D, H94G, Y95F, S96V, L97S, V98S, H99Y, W100S
B4: Elfu (IgG1) (antibody, V domains shown)
VH: EVQLVQSGAEVKKPGESLKISCKGSGYSFTSYWISWVRQMPGKGLEWMGIIYPGTSYTRYSPSFQGQVTISADKSISTAYLQWSSLKASDTAMYYCARGYHLPYFDYWGQGTLVTVSS
VL: QSVLTQPPSVSGAPGQRVTISCTGSSSNIGAGYDVHWYQQLPGTAPKLLIYGNSNRPSGVPDRFSGSKSGTSASLAITGLQAEDEADYYCQAYASPTRVVFGGGTKLTVLG
B5: Bibi (IgG1) (antibody, V domains shown)
VH: EVQLVESGGGLVKPGGSLRLSCAASGFTFSSYSMNWVRQAPGKGLEWVSSISSSSSYIYYADSVKGRFTISRDNAKNSLYLQMNSLRAEDTAVYYCARTESVWHLGFDIWGQGTLVTVSS
VL: DIQMTQSPSSVSASVGDRVTITCRASQGISSWLAWYQQKPGKAPKLLIYAASSLQSGVPSRFSGSGSGTDFTLTISSLQPEDFATYYCQQNHKYPITFGQGTKVEIKR
B6: Aali (IgG1) (antibody, V domains shown)
VH: QVQLVESGGGLVKPGGSLRLSCAASGFTFSDHYISWIRQAPGKGLEWVSYISSSGSTTYYAESVKGRFTISRDNAKNSLYLQMNSLRAEDTAVYYCARTYAYRYDFDLWGQGTLVTVSS
VL: QSVLTQPPSVSGAPGQRVTISCTGSSSNIGAGYDVHWYQQLPGTAPKLLIYGNSNRPSGVPDRFSGSKSGTSASLAITGLQAEDEADYYCQTWVHSYSTPVFGGGTKLTVLG
B7: Fiwi (Fab) (Fab, V domains shown)
VH: B2 VH
VL: B1 VL with Q90G, V93D, H94S, S96L, L97S, H99S, W100F
notes: Tested in monovalent Fab format
B8: Daniel (Fab) (Fab, V domains shown)
VH: B3 VH
VL: B1 VL with Q90G, A91S, V93D, H94G, Y95F, S96V, L97S, V98S, H99Y, W100S
notes: as for B7
B9: Cyprus (Fab) (Fab, V domains shown)
VH: B1 VH
VL: B1 VL
notes: as for B7
B10: Aali (Fab) (Fab, V domains shown)
VH: B6 VH
VL: B6 VL
notes: Tested in monovalent Fab format; also called Aali Fab fragment

Target: T1, PIGQ peptide/HLA-A0201 complex (human, biotinylated (site not stated))
T1 construct: Negative control / counter target complex; also called PIGQ/HLA; PIGQ/HLA complex
Assay: ELISA as in Example 3; biotinylated peptide/HLA complex coated at 50 nM on Neutravidin plates, IgG titrated, AP-conjugated goat anti-human IgG, RFU

| binding result | Binder |
| --- | --- |
| no binding | B1 |
| no binding | B2 |
| no binding | B3 |
| no binding | B4 |
| no binding | B5 |
| no binding | B6 |

Target: T2, WT1 RMF peptide/HLA-A0201 complex (isolated, recombinant, biotinylated) (human)
T2 construct: also called RMF/HLA; RMF/HLA complex
Assay: ELISA on Neutravidin plates, Fab; EC50 compared with the best reference Fab (not named)
Protocol: The binders were subjected to an in-depth characterization. They were directly compared to the antibodies of the prior art in an ELISA assay using Neutravidin plates as described in Example 3. For selected reference antibodies and binders of the present invention, the EC50 were determined.
Furthermore, none of the binders of the present invention show any binding to the counter targets, in particular no binding to the PIGQ/HLA complex.

| fold better EC50 than the best binder of the prior art [fold] | Binder |
| --- | --- |
| ≥ 3.3 | B7 |
| ≥ 3.3 | B8 |
| ≥ 3.3 | B9 |
| ≥ 3.3 | B10 |

Target: T3, RMF/HLA complex on antigen-positive cancer cells (SET2, BV173) (human)
T3 construct: whole, on cells; Naturally presented complex on SET2 (DSMZ ACC 608) and BV173 (DSMZ ACC 20) cells; also called RMF/HLA complex on cells; WT1/HLA-expressing cells
Assay: flow cytometry on BV173 cells, IgG; '++' = EC50 below 10 nM, '+' = EC50 of more than 10 nM
Protocol: (§1) SET2 cells (DSMZ No. ACC 608) and BV173 cells (DSMZ No. ACC 20) were used as antigen-positive cancer cells (see Dao et al.; 2013). Binding was measured by flow cytometry utilizing a PE-conjugated goat anti-human IgG secondary antibody, and EC50 values were determined.
(§2) Example 4 was repeated with the antibodies of the present disclosure, i.e. binding to RNF/HLA-positive SET2 cells (DSMZ No. ACC 608) and BV173 cells (DSMZ No. ACC 20) was tested by flow cytometry. EC50 values were determined.

| EC50 [nM] | Binder |
| --- | --- |
| > 10 | B1 |
| > 10 | B2 |
| > 10 | B3 |
| > 10 | B4 |
| > 10 | B5 |
| > 10 | B6 |

Target: T4, WT1 RMF peptide/HLA-A0201 complex (isolated, recombinant, biotinylated) (human)
Assay: ELISA on Neutravidin plates, IgG; '++' = EC50 below 10 nM, '+' = EC50 of more than 10 nM

| EC50 [nM] | Binder |
| --- | --- |
| < 10 | B4 |
| < 10 | B5 |

Target: T2, WT1 RMF peptide/HLA-A0201 complex …
Assay: as above

| EC50 [nM] | Binder |
| --- | --- |
| < 10 | B1 |
| < 10 | B2 |
| < 10 | B3 |
| < 10 | B6 |

Target: T3, RMF/HLA complex on antigen-positive …
Assay: flow cytometry on SET2 cells, IgG; '++' = EC50 below 10 nM, '+' = EC50 of more than 10 nM
Protocol: as §1, §2

| EC50 [nM] | Binder |
| --- | --- |
| > 10 | B1 |
| > 10 | B2 |
| < 10 | B3 |
| > 10 | B4 |
| > 10 | B5 |
| < 10 | B6 |

Target: T2, WT1 RMF peptide/HLA-A0201 complex …
Assay: Octet (BLI), IgG, apparent (bivalent) affinity; dissociation too slow for the limits of the system
Protocol: The apparent affinity of the binders Aali and Refmab #13 was measured for the RMF/HLA antigen with an Octet system. […] The binding of Aali was characterized by a very slow dissociation rate, which exceeded the specification limits that were set in the system.

| Kd [nM] | Binder |
| --- | --- |
| < 0.5 | B6 |

Target: T4, WT1 RMF peptide/HLA-A0201 complex …
Assay: ELISA as in Example 3; biotinylated peptide/HLA complex coated at 50 nM on Neutravidin plates, IgG titrated, AP-conjugated goat anti-human IgG, RFU

| EC50 (read off the curve) [nM] | Binder |
| --- | --- |
| ~0.3 | B4 |
| ~0.3 | B5 |

Target: T2, WT1 RMF peptide/HLA-A0201 complex …
Assay: as above

| EC50 (read off the curve) [nM] | Binder |
| --- | --- |
| ~0.3 | B1 |
| ~0.3 | B2 |
| ~0.3 | B3 |
| ~0.5 | B6 |

Target: T4, WT1 RMF peptide/HLA-A0201 complex …
Assay: ELISA on Neutravidin plates, IgG

| EC50 [nM] | Binder |
| --- | --- |
| < 1 | B4 |
| < 1 | B5 |

Target: T2, WT1 RMF peptide/HLA-A0201 complex …
Assay: ELISA on Neutravidin plates, IgG

| EC50 [nM] | Binder |
| --- | --- |
| < 1 | B1 |
| < 1 | B2 |
| < 1 | B3 |
| < 1 | B6 |

Target: T1, PIGQ peptide/HLA-A0201 complex
Assay: ELISA on Neutravidin plates, Fab; '---' = no binding

| binding result | Binder |
| --- | --- |
| no binding | B7 |
| no binding | B8 |
| no binding | B9 |
| no binding | B10 |

Target: T2, WT1 RMF peptide/HLA-A0201 complex …
Assay: Octet (BLI), Fab, antigen immobilized to Streptavidin
Protocol: Affinities of the Fab fragments of binders Aali and Refmab #13 for the antigen RMF/HLA were also measured with an Octet system using the antigen immobilized to Streptavidin.

| Kd [nM] | Binder |
| --- | --- |
| 66 | B10 |

Target: T2, WT1 RMF peptide/HLA-A0201 complex …
Assay: ELISA on Neutravidin plates, Fab; '++' = EC50 below 10 nM, '+' = EC50 of more than 10 nM

| EC50 [nM] | Binder |
| --- | --- |
| > 10 | B7 |
| < 10 | B8 |
| < 10 | B9 |
| < 10 | B10 |
